Results reported in the supplement of paper PMC11246515.
± gives the standard deviation of the averaged measurements.

Assay: total protein half-life in vivo (active degradation + dilution); higher = more stable protein
[1] = E. coli NCM3722 delta-clpP delta-lon delta-hslV, growth: N-lim chemostat, doubling time 6 h
[2] = wild type E. coli NCM3722, growth: C-lim chemostat, doubling time 3 h
[3] = wild type E. coli NCM3722, growth: C-lim chemostat, doubling time 12 h
[4] = wild type E. coli NCM3722, growth: P-lim chemostat, doubling time 6 h
[5] = wild type E. coli NCM3722, growth: P-lim chemostat, doubling time 12 h
[6] = E. coli NCM3722 delta-clpP, growth: N-lim chemostat, doubling time 6 h
[7] = E. coli NCM3722 delta-hslV, growth: N-lim chemostat, doubling time 6 h
[8] = E. coli NCM3722 delta-lon, growth: N-lim chemostat, doubling time 6 h
[9] = E. coli NCM3722 delta-smpB, growth: N-lim chemostat, doubling time 6 h
[10] = wild type E. coli NCM3722, growth: C-lim chemostat, doubling time 6 h
[11] = wild type E. coli NCM3722, growth: N-lim chemostat, doubling time 6 h
[12] = wild type E. coli NCM3722, growth: N-lim chemostat, doubling time 12 h

MSKVKSITRESWILSTFPEWGSWLNEEIEQEQVAPGTFAMWWLGCTGIWLKSEGGTNVCVDFWCGTGKQSHGNPLMKQGHQMQRMAGVKKLQPNLRTTPFVLDPFAIRQIDAVLATHDHNDHIDVNVAAAVMQNCADDVPFIGPKTCVDLWIGWGVPKERCIVVKPGDVVKVKDIEIHALDAFDRTALITLPADQKAAGVLPDGMDDRAVNYLFKTPGGSLYHSGDSHYSNYYAKHGNEHQIDVALGSYGENPRGITDKMTSADMLRMGEALNAKVVIPFHHDIWSNFQADPQEIRVLWEMKKDRLKYGFKPFIWQVGGKFTWPLDKDNFEYHYPRGFDDCFTIEPDLPFKSFL
total protein half-life in vivo [1]: 5.04 ± 0.82 h | total protein half-life in vivo [2]: 3.56 h | total protein half-life in vivo [3]: 11.2 h | total protein half-life in vivo [4]: 3.67 ± 0.66 h | total protein half-life in vivo [5]: 9.39 h

MSLTRLLIRDFRNIETADLALSPGFNFLVGANGSGKTSVLEAIYTLGHGRAFRSLQIGRVIRHEQEAFVLHGRLQGEERETAIGLTKDKQGDSKVRIDGTDGHKVAELAHLMPMQLITPEGFTLLNGGPKYRRAFLDWGCFHNEPGFFTAWSNLKRLLKQRNAALRQVTRYEQLRPWDKELIPLAEQISTWRAEYSAGIAADMADTCKQFLPEFSLTFSFQRGWEKETEYAEVLERNFERDRQLTYTAHGPHKADLRIRADGAPVEDTLSRGQLKLLMCALRLAQGEFLTRESGRRCLYLIDDFASELDDERRGLLASRLKATQSQVFVSAISAEHVIDMSDENSKMFTVEKGKITD [P0A7H0]
total protein half-life in vivo [1]: 5.54 ± 0.29 h | total protein half-life in vivo [6]: 4.43 ± 0.14 h | total protein half-life in vivo [7]: 3.95 ± 0.053 h | total protein half-life in vivo [8]: 4.92 ± 0.21 h | total protein half-life in vivo [9]: 3.93 ± 0.32 h | total protein half-life in vivo [10]: 5.07 ± 0.41 h | total protein half-life in vivo [3]: 9.88 ± 0.3 h | total protein half-life in vivo [11]: 4.32 ± 0.1 h | total protein half-life in vivo [12]: 8.32 ± 0.12 h | total protein half-life in vivo [4]: 4.06 ± 1 h | total protein half-life in vivo [5]: 7.31 ± 0.63 h

MKYDTSELCDIYQEDVNVVEPLFSNFGGRASFGGQIITVKCFEDNGLLYDLLEQNGRGRVLVVDGGGSVRRALVDAELARLAVQNEWEGLVIYGAVRQVDDLEELDIGIQAMAAIPVGAAGEGIGESDVRVNFGGVTFFSGDHLYADNTGIILSEDPLDIE [P0A8R0]
total protein half-life in vivo [1]: 5.37 ± 0.18 h | total protein half-life in vivo [6]: 5.11 ± 0.26 h | total protein half-life in vivo [7]: 5.16 ± 0.12 h | total protein half-life in vivo [8]: 4.57 ± 0.28 h | total protein half-life in vivo [9]: 4.26 ± 0.1 h | total protein half-life in vivo [2]: 3.25 ± 0.3 h | total protein half-life in vivo [10]: 6.31 ± 1.1 h | total protein half-life in vivo [3]: 13.4 ± 0.22 h | total protein half-life in vivo [11]: 5.06 ± 0.22 h | total protein half-life in vivo [12]: 8.11 ± 0.27 h | total protein half-life in vivo [4]: 6.02 ± 0.41 h | total protein half-life in vivo [5]: 12.7 ± 1.7 h

MENNEIQSVLMNALSLQEVHVSGDGSHFQVIAVGELFDGMSRVKKQQTVYGPLMEYIADNRIHAVSIKAYTPAEWARDRKLNGF [P0A9W6]
total protein half-life in vivo [1]: 5.36 ± 0.32 h | total protein half-life in vivo [6]: 3.86 ± 0.21 h | total protein half-life in vivo [7]: 4.35 ± 0.56 h | total protein half-life in vivo [8]: 5.87 ± 1.2 h | total protein half-life in vivo [9]: 4.08 ± 0.3 h | total protein half-life in vivo [2]: 3.11 ± 0.42 h | total protein half-life in vivo [10]: 4.5 h | total protein half-life in vivo [3]: 7.8 ± 0.37 h | total protein half-life in vivo [11]: 4.09 ± 0.043 h | total protein half-life in vivo [12]: 7.378 ± 0.011 h | total protein half-life in vivo [4]: 4.79 ± 0.25 h | total protein half-life in vivo [5]: 10.8 ± 1.1 h

MSKLDTFIQHAVNAVPVSGTSLISSLYGDSLSHRGGEIWLGSLAALLEGLGFGERFVRTALFRLNKEGWLDVSRIGRRSFYSLSDKGLRLTRRAESKIYRAEQPAWDGKWLLLLSEGLDKSTLADVKKQLIWQGFGALAPSLMASPSQKLADVQTLLHEAGVADNVICFEAQIPLALSRAALRARVEECWHLTEQNAMYETFIQSFRPLVPLLKEAADELTPERAFHIQLLLIHFYRRVVLKDPLLPEELLPAHWAGHTARQLCINIYQRVAPAALAFVSEKGETSVGELPAPGSLYFQRFGGLNIEQEALCQFIR
total protein half-life in vivo [7]: 4.03 ± 0.075 h | total protein half-life in vivo [8]: 4.2 ± 0.044 h | total protein half-life in vivo [9]: 4.07 ± 0.076 h | total protein half-life in vivo [2]: 2.77 ± 0.17 h | total protein half-life in vivo [10]: 5.07 ± 0.31 h | total protein half-life in vivo [3]: 8.39 ± 0.13 h | total protein half-life in vivo [11]: 4.07 ± 0.22 h | total protein half-life in vivo [12]: 6.84 ± 0.13 h | total protein half-life in vivo [4]: 4.82 ± 0.088 h | total protein half-life in vivo [5]: 8.96 ± 0.47 h

MKQTQRHNGIIELVKQQGYVSTEELVEHFSVSPQTIRRDLNELAEQNLILRHHGGAALPSSSVNTPWHDRKATQTEEKERIARKVAEQIPNGSTLFIDIGTTPEAVAHALLNHSNLRIVTNNLNVANTLMVKEDFRIILAGGELRSRDGGIIGEATLDFISQFRLDFGILGISGIDSDGSLLEFDYHEVRTKRAIIENSRHVMLVVDHSKFGRNAMVNMGSISMVDAVYTDAPPPVSVMQVLTDHHIQLELC [P0ACL0]
total protein half-life in vivo [1]: 6.303 ± 0.03 h | total protein half-life in vivo [6]: 5.91 ± 0.36 h | total protein half-life in vivo [7]: 5.156 ± 0.034 h | total protein half-life in vivo [8]: 5.78 ± 0.11 h | total protein half-life in vivo [9]: 5.52 ± 0.89 h | total protein half-life in vivo [2]: 2.84 ± 0.11 h | total protein half-life in vivo [10]: 5.9 ± 0.41 h | total protein half-life in vivo [3]: 10.73 ± 0.031 h | total protein half-life in vivo [11]: 5.84 ± 0.25 h | total protein half-life in vivo [12]: 10.323 ± 0.00092 h | total protein half-life in vivo [4]: 5.28 ± 0.33 h | total protein half-life in vivo [5]: 11.3 ± 0.63 h

MIFLMTKDSFLLQGFWQLKDNHEMIKINSLSEIKKVGNKPFKVIIDTYHNHILDEEAIKFLEKLDAERIIVLAPYHISKLKAKAPIYFVSRKESIKNLLEITYGKHLPHKNSQLCFSHNQFKIMQLILKNKNESNITSTLNISQQTLKIQKFNIMYKLKLRRMSDIVTLGITSYF
total protein half-life in vivo [1]: 4.62 ± 0.1 h | total protein half-life in vivo [6]: 3.05 ± 0.11 h | total protein half-life in vivo [7]: 1.91 ± 0.33 h | total protein half-life in vivo [8]: 1.03 ± 0.022 h | total protein half-life in vivo [9]: 3.52 ± 0.093 h | total protein half-life in vivo [11]: 2.29 ± 0.07 h | total protein half-life in vivo [12]: 3.82 ± 0.15 h | total protein half-life in vivo [4]: 2.34 ± 0.054 h | total protein half-life in vivo [5]: 6.16 ± 0.74 h

MNKLIELRRAKRLALSLLLIAAATFVVTLFLPPNFWVSGVKAIAEAAMVGALADWFAVVALFRRVPIPIISRHTAIIPRNKDRIGENLGQFVQEKFLDTQSLVALIRRHEPALLIGNWFSQPENARRVGQHLLQIMSGFLELTDDARIQRLLKRAVHRAIDKVDLSGTSALMLESMTKNDRHQVLLDTLIAQLIALLQRDKSRKFIAQQIVRWLESEHPLKAKILPTEWLGEHSAELVSDAVNSLLDDISRDRAHQIRHAFDRATFALIDKLKNDPEMAARADAVKSYLKEDEAFNRYLSELWGDLREWLKVDINSEDSRVKERIARAGQWFGETLIADDALRASLNGHLEQAAHRVAPEFSAFLTRHISDTVKSWDARDMSRQIELNIGKDLQFIRVNGTLVGGCIGLILYLLSQLPALFPLGNF
total protein half-life in vivo [1]: 5.72 ± 0.23 h | total protein half-life in vivo [7]: 6.12 ± 0.14 h | total protein half-life in vivo [8]: 5.6 ± 0.16 h | total protein half-life in vivo [9]: 5.794 ± 0.016 h | total protein half-life in vivo [2]: 3.17 ± 0.071 h | total protein half-life in vivo [10]: 5.3 ± 0.096 h | total protein half-life in vivo [3]: 12.3 ± 2.3 h | total protein half-life in vivo [11]: 6.365 ± 0.03 h | total protein half-life in vivo [12]: 12.37 ± 0.058 h | total protein half-life in vivo [4]: 5.7 ± 0.39 h | total protein half-life in vivo [5]: 12.4 ± 1.6 h
